For experiment [1], the target named is T1, recombinant human IL6R-his (human, UniProt P08887 20-365).
T1 construct: In house made; the entry includes the C-terminal His tag; also called human IL6R-his protein
T1 sequence: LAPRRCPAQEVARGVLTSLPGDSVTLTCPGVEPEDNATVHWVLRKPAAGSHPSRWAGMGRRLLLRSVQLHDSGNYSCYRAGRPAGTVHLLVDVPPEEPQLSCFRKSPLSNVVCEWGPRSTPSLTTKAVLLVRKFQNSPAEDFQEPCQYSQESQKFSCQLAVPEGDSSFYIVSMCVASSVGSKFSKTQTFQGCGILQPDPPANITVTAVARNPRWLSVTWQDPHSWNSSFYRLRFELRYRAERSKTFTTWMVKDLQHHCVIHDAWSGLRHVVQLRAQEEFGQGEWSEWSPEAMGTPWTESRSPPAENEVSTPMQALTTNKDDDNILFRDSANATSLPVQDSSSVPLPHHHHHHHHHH
As to the kind of experiment: SPR Biacore T200; mAb captured by anti-mouse IgG on CM5, antigen in flow, 1:1 fit. How it is done: (§1) Un-reacted moieties on the biosensor surface were blocked with ethanolamine. […] Then, serially diluted recombinant human IL6R-his (in house made, amino acid sequence set forth in SEQ ID NO: 44) or macaca IL6R-his protein (in house made, amino acid sequence set forth in SEQ ID NO: 45), starting at 100 nM with a 2-fold serial dilution in HBS-EP⁺ buffer (provided by Biacore), was flowed onto the chip at a flow rate of 30 μL/min. The antigen-antibody association kinetics was followed for 2 minutes and the dissociation kinetics was followed for 10 minutes. The association and dissociation curves were fit to a 1:1 Langmuir binding model using BIAcore evaluation software.

A further experiment concerns the target T2, macaca IL6R-his protein (macaca mulatta).
T2 chain: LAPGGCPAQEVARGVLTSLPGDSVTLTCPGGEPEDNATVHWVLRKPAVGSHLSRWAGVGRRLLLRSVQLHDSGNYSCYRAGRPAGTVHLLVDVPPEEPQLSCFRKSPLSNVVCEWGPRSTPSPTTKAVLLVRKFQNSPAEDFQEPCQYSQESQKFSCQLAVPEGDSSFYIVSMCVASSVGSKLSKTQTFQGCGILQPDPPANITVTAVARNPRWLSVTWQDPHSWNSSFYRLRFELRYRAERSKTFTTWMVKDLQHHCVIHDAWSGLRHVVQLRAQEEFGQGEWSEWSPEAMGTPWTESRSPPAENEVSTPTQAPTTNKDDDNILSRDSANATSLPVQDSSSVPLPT
The experiment is described as above. On the procedure:
as §1

A further experiment deals with T3, human IL6R-Fc protein (human, biotin-labeled in the ELISAs (sites not given)).
T3 construct: In house made; also called biotin-labeled human IL6R-Fc protein
T3 sequence (chain, as listed by the source limits assumed): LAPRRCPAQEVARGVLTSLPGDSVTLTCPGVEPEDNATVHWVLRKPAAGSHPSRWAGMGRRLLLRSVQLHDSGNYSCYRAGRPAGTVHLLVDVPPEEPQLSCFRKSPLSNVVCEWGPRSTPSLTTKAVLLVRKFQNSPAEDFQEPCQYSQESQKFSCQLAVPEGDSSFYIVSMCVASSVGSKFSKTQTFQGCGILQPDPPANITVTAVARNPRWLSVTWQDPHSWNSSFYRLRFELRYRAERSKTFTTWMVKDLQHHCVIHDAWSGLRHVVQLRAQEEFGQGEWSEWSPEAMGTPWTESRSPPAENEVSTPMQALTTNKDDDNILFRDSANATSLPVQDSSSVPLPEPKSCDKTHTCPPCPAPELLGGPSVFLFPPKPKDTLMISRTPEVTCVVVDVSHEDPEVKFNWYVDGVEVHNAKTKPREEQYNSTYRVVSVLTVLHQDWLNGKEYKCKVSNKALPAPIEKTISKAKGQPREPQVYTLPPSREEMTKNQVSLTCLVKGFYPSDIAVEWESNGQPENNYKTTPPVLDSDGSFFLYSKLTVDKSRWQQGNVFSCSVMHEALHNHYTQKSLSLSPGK
Put plainly: capture ELISA: antibody captured on anti-IgG F(ab')2 coated plate, then biotin-labeled human IL6R-Fc, streptavidin-HRP. How it is done:
For the capture ELISA, 96-well micro plates were coated with 2 μg/ml AffiniPure Goat Anti-Mouse IgG, F(ab′)₂ fragment specific (Jackson ImmunoResearch Laboratories, Inc., Cat #115-005-072) in PBS, 100 μl/well, and incubated for 2 hours at 37° C. Plates were washed once with wash buffer (PBS+0.05% v/v Tween-20, PBST) and then blocked with 200 μl/well blocking buffer (5% w/v non-fatty milk in PBST) overnight at 4° C. […] Plates containing captured anti-IL6R antibodies were incubated with biotin-labeled human IL6R-Fc protein (prepared in house, SEQ ID NO: 43, 39.5 ng/ml in 2.5% w/v non-fatty milk in PBST, 100 μl/well) for 40 minutes at 37° C., washed 4 times, and incubated with streptavidin conjugated HRP (1:10000 dilution in PBST, Jackson ImmunoResearch Laboratories, Inc., Cat #016-030-084, 100 μl/well) for 40 minutes at 37° C. After a final wash, plates were incubated with 100 μl/well ELISA substrate TMB (InnoReagents, Cat #TMB-S-002). The reaction was stopped 3-10 minutes later at room temperature with 50 μl/well 1M H₂SO₄, and the absorbance of each well was read on a microplate reader using dual wavelength mode at 450 nm for TMB and 630 nm as the reference wavelength. Then the OD (450-630) values were plotted against antibody concentration. Data was analyzed using Graphpad Prism software and EC₅₀ values were reported.

Experiment [2] has as its target T4, human IL6R expressed on cell surface (human, UniProt P08887 20-468).
T4 construct: whole, on cells; also called cell surface human IL6R; U266 cells expressing human IL6R
T4 sequence (looked up): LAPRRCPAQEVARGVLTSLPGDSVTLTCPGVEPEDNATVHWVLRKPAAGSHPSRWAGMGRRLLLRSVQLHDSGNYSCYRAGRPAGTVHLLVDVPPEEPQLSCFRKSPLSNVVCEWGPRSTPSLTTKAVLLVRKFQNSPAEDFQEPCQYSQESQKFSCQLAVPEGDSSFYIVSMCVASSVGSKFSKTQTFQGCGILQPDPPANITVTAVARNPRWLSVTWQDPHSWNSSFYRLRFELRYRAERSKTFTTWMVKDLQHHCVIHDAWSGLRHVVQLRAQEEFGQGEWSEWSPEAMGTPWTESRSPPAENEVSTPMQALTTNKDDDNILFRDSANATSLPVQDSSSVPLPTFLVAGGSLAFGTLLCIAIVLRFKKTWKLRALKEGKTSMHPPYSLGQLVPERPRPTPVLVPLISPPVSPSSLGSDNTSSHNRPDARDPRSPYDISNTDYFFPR
Put plainly: cell-based binding FACS on U266 cells. On the procedure:
The binding activities of the mouse anti-IL6R antibodies to IL6R expressed on cell surface were tested by flow cytometry (FACS). Briefly, human myeloma cells U266 (ATCC® TIB-196™) were harvested from cell culture flasks, washed twice and resuspended in phosphate buffered saline (PBS) containing 2% v/v Fetal Bovine Serum (FACS buffer). 2×10⁵ U266 cells per well were incubated in 96 well-plates with 100 μl of the anti-IL6R antibodies or controls at various concentrations (starting at 40 nM with a 3-fold serial dilution in FACS buffer) for 40 minutes on ice. Cells were washed twice with FACS buffer, and added with 100 μL/well R-Phycoerythrin AffiniPure F(ab′)₂ Fragment Goat Anti-Mouse IgG (H+L) (1:1000 dilution in FACS buffer, Jackson ImmunoResearch Laboratories, Inc., Cat #115-116-146). Following an incubation of 40 minutes at 4° C. in dark, cells were washed three times and resuspended in FACS buffer. Fluorescence was measured using a Becton Dickinson FACS Canto II-HTS equipment. Data was analyzed using Graphpad Prism software and EC₅₀ values were reported.

Changes are numbered by the printed parent chain.

B1: mouse anti-IL6R monoclonal antibody 1H9 (antibody, V domains shown)
VH: QVQLQQPGAELVKPGASVKLSCKASGYTFTSYWMHWVKLRPGQGLEWIGEINPTNGRTNYYEKFKNRATLTADKSSSTAYMQLSSLTFEDSAVYFCAKFHYSRWYFDVWGTGTTVTVSS
VL: DIVMTQSQKFMSTSVGDRVSITCKASQNVGTAVVWYQQKPGQSPKLLINPASNRYTGVPDRFTGSGSGTDFTLTISNMQSEDLADYFCQQYSSYPLTFGAGTKLELK
notes: Mouse hybridoma mAb
Turning to B1, in experiment [1], the dissociation constant (Kd) was 1.08 nM, the off-rate constant (koff) came to 0.00012 s⁻¹ and the kon is 112000 M⁻¹ s⁻¹. Further, in the experiment with macaca IL6R-his protein, the affinity, expressed as Kd, was 1.65 nM; the koff came out at 0.000155 s⁻¹; the kon came to 94100 M⁻¹ s⁻¹. The EC50 with human IL6R-Fc protein is 0.0679 nM.

B2: mouse anti-IL6R monoclonal antibody 1F7 (antibody, V domains shown)
VH: QVQLQQPGAELVKPGASVKLSCKASDYTFTSYWMHWVKQRPGQGLEWIGEINPSNGRTNYNEKFKNKATLTVDKSSSTAYVQLYSLTSEDSAVYYCARLSIHYVFDYWGQGTTLTVSS
VL: ELVLTQSPTTMAASPGEKITFTCSASSSISSNYLHWYQQKPGFSPKLLISGTSNLASGVPPRFSGSGSGTSYSLTIVTMEAEDVATYYCQQGSGIPFTFGSGTKLEIK
notes: Mouse hybridoma mAb
In the case of B2, in experiment [1], the Kd came to 0.537 nM, the koff amounted to 7.46e-05 s⁻¹ and the on-rate constant (kon) came out at 139000 M⁻¹ s⁻¹. In the experiment with macaca IL6R-his protein, this molecule registered a Kd of 0.523 nM, an off-rate (koff) of 6.46e-05 s⁻¹ and an on-rate constant (kon) of 124000 M⁻¹ s⁻¹. Further, the midpoint of the response with human IL6R-Fc protein, the EC50, lay at 0.0593 nM.

B3: mouse anti-IL6R monoclonal antibody 1H7 (antibody, V domains shown)
VH: QVQLQQPGTELVKPGASVKLSCKASGYTFTNYWMHWVKQRPGQGLDWIGEINPTNGRTNYNENFKSKATLTVDKSSSTAYMQLSSLTSEDSAVYYCARLNTHYVFDSWGQGTTLTLSS
VL: B2 VL with L2I, M11L, A25V, G51R, N54T, P61A, V77G, I107L
notes: Mouse hybridoma mAb
As for B3, in experiment [1], the Kd amounted to 0.308 nM, the koff amounted to 4.73e-05 s⁻¹ and the kon amounted to 153000 M⁻¹ s⁻¹. Moreover, in the experiment with macaca IL6R-his protein, the dissociation constant Kd was 0.229 nM, the koff was 3.14e-05 s⁻¹ and the kon stood at 137000 M⁻¹ s⁻¹. In addition, it took 0.0436 nM to reach a half-maximal effect with human IL6R-Fc protein (EC50).

B4: mouse anti-IL6R monoclonal antibody 1D4 (antibody, V domains shown)
VH: B3 VH with T9A, N31S, Q39V, D46E, N63D, D73N, K74S, S107Y, L116V
VL: B2 VL with L2I, T10I, M11L, A25V, S50Y, G51R, P61A, V77G
notes: Mouse hybridoma mAb
For the molecule B4, in experiment [1], the Kd was determined as 0.628 nM, the koff is 8.64e-05 s⁻¹ and the kon was determined as 138000 M⁻¹ s⁻¹. For the same molecule, in the experiment with macaca IL6R-his protein, the dissociation constant (Kd) is 0.6 nM, the koff worked out at 7.39e-05 s⁻¹ and the kon turned out to be 123000 M⁻¹ s⁻¹. In the experiment with human IL6R-Fc protein, this molecule came in with an EC50 of 0.0558 nM.

B5: mouse anti-IL6R monoclonal antibody 1A3 (antibody, V domains shown)
VH: QVQLQQPGAELVKPGASVKLSCKASGYTFTSYWMHWVKQRPAQGLEWIGEINPSNGRTNFNEKFKTKATLTVDKSSNTAYMQLSSLTSEDSAVYSCLRLNTHYVFDYWGQGTTLTVSS
VL: B2 VL with L2I, F21I, G51R, P61T, V77G, E82G
notes: Mouse hybridoma mAb purified on Protein A
With B5, in experiment [1], the Kd was determined as 0.293 nM, the dissociation rate constant (koff) was determined as 4.32e-05 s⁻¹ and the kon worked out at 148000 M⁻¹ s⁻¹. Also, in the experiment with macaca IL6R-his protein, the equilibrium dissociation constant (Kd) worked out at 0.328 nM, the koff was determined as 4.54e-05 s⁻¹ and the kon is 139000 M⁻¹ s⁻¹. The same molecule showed a concentration giving a half-maximal response (EC50) in the experiment with human IL6R-Fc protein of 0.073 nM.

B6: mouse anti-IL6R monoclonal antibody 3C2 (antibody, V domains shown)
VH: B3 VH with N31T, M34I, D46E, T54S, N63H, Y80S, E89A, L116V
VL: B2 VL with L2I, F21I, S50Y, G51R, P61T, R62H, V77G
notes: Mouse hybridoma mAb
For the molecule B6, the dissociation constant (Kd) in experiment [1] came to 0.911 nM; in the experiment with macaca IL6R-his protein it was 0.977 nM. Further, the values for the koff (in experiment [1]; with macaca IL6R-his protein) were 0.000135 s⁻¹ and 0.000127 s⁻¹, respectively. Further, the figures for the kon (in experiment [1]; in the experiment with macaca IL6R-his protein) were 148000 M⁻¹ s⁻¹ and 130000 M⁻¹ s⁻¹, respectively. The concentration for a half-maximal effect (EC50) with human IL6R-Fc protein was 0.0536 nM; in experiment [2], 0.286 nM.

B7: mouse anti-IL6R monoclonal antibody 1B5 (antibody, V domains shown)
VH: B3 VH with T9A, N31S, D46E, T54S, S107Y, L116V
VL: B2 VL with L2I, T10I, M11L, A25V, S50Y, G51R, P61A, V77G
notes: Mouse hybridoma mAb
On to B7, for which, in experiment [1], the dissociation constant Kd was 0.476 nM, the koff worked out at 6.7e-05 s⁻¹ and the on-rate constant (kon) stood at 141000 M⁻¹ s⁻¹. Also, in the experiment with macaca IL6R-his protein, binding was put at a Kd of 0.609 nM, the koff was 7.86e-05 s⁻¹ and the kon worked out at 129000 M⁻¹ s⁻¹. This molecule displayed an EC50 in the experiment with human IL6R-Fc protein of 0.0372 nM.

B8: mouse anti-IL6R monoclonal antibody 1G1 (antibody, V domains shown)
VH: B3 VH with T9A, N31S, Q39V, D46E, N63D, D73E, K74S, L83F, S107Y, L116V
VL: B2 VL with L2I, T10I, M11L, A25V, S50Y, G51R, P61A, V77G
notes: Mouse hybridoma mAb
B8: in experiment [1], the equilibrium dissociation constant (Kd) stood at 0.647 nM, the dissociation rate constant (koff) turned out to be 9.09e-05 s⁻¹ and the on-rate (kon) came to 141000 M⁻¹ s⁻¹. In the experiment with macaca IL6R-his protein, binding was put at a Kd of 0.736 nM, the dissociation rate constant (koff) was 8.85e-05 s⁻¹ and the kon was determined as 120000 M⁻¹ s⁻¹. The molecule further showed a half-maximal effective concentration (EC50) with human IL6R-Fc protein of 0.085 nM. Further, in experiment [2], the EC50 turned out to be 0.34 nM.

B9: Tocilizumab (antibody, human IgG1, kappa, V domains shown)
VH: QVQLQESGPGLVRPSQTLSLTCTVSGYSITSDHAWSWVRQPPGRGLEWIGYISYSGITTYNPSLKSRVTMLRDTSKNQFSLRLSSVTAADTAVYYCARSLARTTAMDYWGQGSLVTVSS
VL: DIQMTQSPSSLSASVGDRVTITCRASQDISSYLNWYQQKPGKAPKLLIYYTSRLHSGVPSRFSGSGSGTDFTFTISSLQPEDIATYYCQQGNTLPYTFGQGTKVEIKR
notes: In house made; also called benchmark; Actemra
B9 gave a half-maximal effective concentration (EC50) in experiment [2] of 1.49 nM.
